For data set [1], the target named is T1, Mss116 helicase core (D1D2, residues 88–597) (Saccharomyces cerevisiae, UniProt P15424).
T1 construct: helicase core D1D2 (residues 88-597; D1, D2 and CTE), lacking unstructured N- (37-87) and C-terminal (598-664) extensions; expressed as N-terminal MalE (MBP) fusion in E. coli Rosetta 2; D1D2 used for crystals and kinetic unwinding
T1 sequence (P15424 88-597): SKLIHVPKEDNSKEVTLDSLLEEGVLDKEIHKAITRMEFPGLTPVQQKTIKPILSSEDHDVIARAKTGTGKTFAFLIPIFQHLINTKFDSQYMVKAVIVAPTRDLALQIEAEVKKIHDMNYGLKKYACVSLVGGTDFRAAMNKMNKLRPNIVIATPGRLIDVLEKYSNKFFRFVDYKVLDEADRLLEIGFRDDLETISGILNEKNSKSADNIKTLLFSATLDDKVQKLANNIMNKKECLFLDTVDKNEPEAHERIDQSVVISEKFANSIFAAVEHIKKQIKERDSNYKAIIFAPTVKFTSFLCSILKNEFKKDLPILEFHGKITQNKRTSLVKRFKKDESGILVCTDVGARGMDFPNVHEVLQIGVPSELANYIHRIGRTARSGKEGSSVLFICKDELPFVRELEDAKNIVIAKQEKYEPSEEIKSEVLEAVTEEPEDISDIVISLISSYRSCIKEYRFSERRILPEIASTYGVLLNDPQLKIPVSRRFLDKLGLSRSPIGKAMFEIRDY
Description: kinetic gel-based dsRNA unwinding. Type of data set: biochemical. The settings on record: 5 mM ATP-Mg, 2 uM D1D2, 125 nM labelled 12-bp dsRNA, pH 7.5, 22 °C.

For data set [2], the target named is T2, Mss116 D2, MBP-tagged (Saccharomyces cerevisiae? (paper: yeast), UniProt P15424 342-597).
T2 sequence: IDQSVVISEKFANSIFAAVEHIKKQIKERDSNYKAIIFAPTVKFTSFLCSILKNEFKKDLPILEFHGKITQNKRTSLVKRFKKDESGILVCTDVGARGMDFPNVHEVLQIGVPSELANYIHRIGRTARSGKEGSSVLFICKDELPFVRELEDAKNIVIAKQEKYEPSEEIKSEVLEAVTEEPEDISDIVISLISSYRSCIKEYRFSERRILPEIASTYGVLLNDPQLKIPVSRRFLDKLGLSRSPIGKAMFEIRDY
The data set is described as follows: EMSA; no nucleotide; Hill 1.6; 20 mM Tris-HCl pH 7.5, 100 mM KCl, 10% glycerol, 1 mM DTT, 5 mM MgCl2, 0.1 mg/ml BSA, 22 C, >=1 h; EMSA gels 6% at 4 C in 0.5x TBE; SEC with 200 mM KCl, no BSA. Particulars: protein: recombinant; tags: N-terminal MBP (MalE); label: 5' FAM; self-complementary, 2 strand copies, 12 bp.

Data set [3] has as its target T2, Mss116 D2, MBP-tagged. Description: EMSA; no nucleotide; Hill 2.2; 20 mM Tris-HCl pH 7.5, 100 mM KCl, 10% glycerol, 1 mM DTT, 5 mM MgCl2, 0.1 mg/ml BSA, 22 C, >=1 h; EMSA gels 6% at 4 C in 0.5x TBE; SEC with 200 mM KCl, no BSA. The settings on record: protein: recombinant; tags: N-terminal MBP (MalE); label: 5' FAM; self-complementary, 2 strand copies, 12 bp. Background: Mobility shift assays separate free from complexed probe on a gel.

The target of data set [4] is T2, Mss116 D2, MBP-tagged. The data set is described as follows: competition; unlabeled B-DNA displacing 250 nM 5' FAM-dsRNA from 500 nM MBP-D2; 20 mM Tris-HCl pH 7.5, 100 mM KCl, 10% glycerol, 1 mM DTT, 5 mM MgCl2, 0.1 mg/ml BSA, 22 C, >=1 h; EMSA gels 6% at 4 C in 0.5x TBE; SEC with 200 mM KCl, no BSA. Particulars: protein: recombinant; tags: N-terminal MBP (MalE); self-complementary, 2 strand copies, 12 bp.

Data set [5] addresses T3, Mss116 helicase core D1D2 (Saccharomyces cerevisiae? (paper: yeast), UniProt P15424 88-597).
T3 sequence: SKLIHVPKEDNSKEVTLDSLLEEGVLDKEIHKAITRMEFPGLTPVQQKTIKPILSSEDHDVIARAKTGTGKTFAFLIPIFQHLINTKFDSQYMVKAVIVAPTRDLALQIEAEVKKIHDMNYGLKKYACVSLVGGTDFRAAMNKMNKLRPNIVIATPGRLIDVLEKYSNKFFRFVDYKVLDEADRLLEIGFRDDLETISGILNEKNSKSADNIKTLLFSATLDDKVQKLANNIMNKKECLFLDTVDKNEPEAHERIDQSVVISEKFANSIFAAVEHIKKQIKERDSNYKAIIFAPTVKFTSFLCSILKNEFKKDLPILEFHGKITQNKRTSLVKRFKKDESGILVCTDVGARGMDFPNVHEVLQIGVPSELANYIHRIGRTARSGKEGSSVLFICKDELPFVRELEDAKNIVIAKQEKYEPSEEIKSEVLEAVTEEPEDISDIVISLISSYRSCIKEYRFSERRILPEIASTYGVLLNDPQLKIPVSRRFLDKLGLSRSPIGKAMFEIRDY
Description: SEC; 5 mM ADP-BeFx; A260/A280 0.6, open; no complex maintained on column; 20 mM Tris-HCl pH 7.5, 100 mM KCl, 10% glycerol, 1 mM DTT, 5 mM MgCl2, 0.1 mg/ml BSA, 22 C, >=1 h; EMSA gels 6% at 4 C in 0.5x TBE; SEC with 200 mM KCl, no BSA. Particulars: protein: recombinant; tags: expressed as MalE fusion; self-complementary, 2 strand copies, 12 bp. (In general: In gel filtration, larger molecules generally elute earlier.)

Data set [6] concerns the target T4, Mss116 helicase core D1D2, MBP-tagged (Saccharomyces cerevisiae? (paper: yeast), UniProt P15424 88-597).
T4 sequence: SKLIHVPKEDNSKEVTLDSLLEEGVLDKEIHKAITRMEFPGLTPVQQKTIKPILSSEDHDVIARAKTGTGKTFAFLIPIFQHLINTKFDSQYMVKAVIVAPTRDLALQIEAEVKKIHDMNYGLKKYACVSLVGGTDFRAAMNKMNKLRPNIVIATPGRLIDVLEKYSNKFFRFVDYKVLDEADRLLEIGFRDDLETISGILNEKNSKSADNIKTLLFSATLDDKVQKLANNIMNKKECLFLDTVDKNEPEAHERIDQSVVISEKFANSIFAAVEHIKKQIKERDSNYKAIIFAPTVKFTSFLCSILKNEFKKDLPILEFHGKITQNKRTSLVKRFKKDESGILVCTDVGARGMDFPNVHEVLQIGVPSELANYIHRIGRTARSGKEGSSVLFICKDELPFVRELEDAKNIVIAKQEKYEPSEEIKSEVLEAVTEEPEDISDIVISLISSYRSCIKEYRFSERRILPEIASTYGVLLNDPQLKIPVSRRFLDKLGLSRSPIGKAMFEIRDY
The data set is described as follows: gel-based fluorescence closed-state/unwinding assay; ADP-BeFx titrated (value is nucleotide concentration), 2 uM protein; 20 mM Tris-HCl pH 7.5, 100 mM KCl, 10% glycerol, 1 mM DTT, 5 mM MgCl2, 0.1 mg/ml BSA, 22 C, >=1 h; EMSA gels 6% at 4 C in 0.5x TBE; SEC with 200 mM KCl, no BSA. Particulars: protein: recombinant; tags: N-terminal MBP (MalE); label: 5' FAM, 3' Iowa Black FQ; self-complementary, 2 strand copies, 12 bp.

Data set [7] deals with T2, Mss116 D2, MBP-tagged. Description: EMSA; no nucleotide; Hill 1.5; 20 mM Tris-HCl pH 7.5, 100 mM KCl, 10% glycerol, 1 mM DTT, 5 mM MgCl2, 0.1 mg/ml BSA, 22 C, >=1 h; EMSA gels 6% at 4 C in 0.5x TBE; SEC with 200 mM KCl, no BSA. Particulars: protein: recombinant; tags: N-terminal MBP (MalE); label: 5' FAM; self-complementary, 2 strand copies, 12 bp.
Data set [8] deals with T2, Mss116 D2, MBP-tagged. Description: competition; unlabeled dsRNA displacing 250 nM 5' FAM-B-DNA from 500 nM MBP-D2; 20 mM Tris-HCl pH 7.5, 100 mM KCl, 10% glycerol, 1 mM DTT, 5 mM MgCl2, 0.1 mg/ml BSA, 22 C, >=1 h; EMSA gels 6% at 4 C in 0.5x TBE; SEC with 200 mM KCl, no BSA. Particulars: protein: recombinant; tags: N-terminal MBP (MalE); self-complementary, 2 strand copies, 12 bp.

The term Ki denotes a dissociation constant, usually derived from enzyme kinetics or from competition with a known ligand.

In the case of `Nc1ncnc2c1ncn2[C@@H]1O[C@H](COP(=O)(O)OP(=O)(O)OP(=O)(O)O)[C@@H](O)[C@H]1O` [ATP], the “kinetic gel-based dsRNA unwinding” value in data set [1] was “only ATP, and not other NTPs, catalyzes the unwinding of the dsRNA”.

B1: 12-bp B-DNA duplex, 5' FAM (dsDNA)
DNA 1: GCGCGCGCGCGC
DNA 2: GCGCGCGCGCGC
Take B1: the “apparent K (half saturation)” value with Mss116 D2, MBP-tagged [2] was determined as 510 nM.

B2: 12-bp dsRNA, 5' FAM (dsRNA)
RNA 1: CCCCCGCGGGGG
RNA 2: CCCCCGCGGGGG
In the case of B2, the “apparent K (half saturation)” value with Mss116 D2, MBP-tagged [3] came out at 400 nM.

B3: 12-bp B-DNA duplex, unlabeled (dsDNA)
DNA 1: GCGCGCGCGCGC
DNA 2: GCGCGCGCGCGC
Turning to B3, the inhibition constant Ki in the data set with Mss116 D2, MBP-tagged [4] is 1700 ± 200 nM. Moreover, the binding result in data set [5] is “no binding”.

B4: 12-bp dsRNA, FAM/IBFQ (dsRNA)
RNA 1: CCCCCGCGGGGG
RNA 2: CCCCCGCGGGGG
Turning to B4, in data set [6], the “apparent K (half saturation)” value worked out at 140 µM.

B5: 12-bp A-DNA duplex, 5' FAM (dsDNA)
DNA 1: CCCCCGCGGGGG
DNA 2: CCCCCGCGGGGG
Regarding B5, the “apparent K (half saturation)” value in the data set with Mss116 D2, MBP-tagged [7] was 410 nM.

B6: 12-bp dsRNA, unlabeled (dsRNA)
RNA 1: CCCCCGCGGGGG
RNA 2: CCCCCGCGGGGG
Take B6: the inhibition constant (Ki) with Mss116 D2, MBP-tagged [8] turned out to be 860 ± 40 nM.

The record behind these values is paper PMC4383044, “Molecular insights into RNA and DNA helicase evolution from the determinants of specificity for a DEAD-box RNA helicase” (eLife, 2014).
